Test results taken from patent publication US20060024667A1 (PRIMEX CLINICAL LABORATORIES, published 2006).
Positions of bridges follow the written chain, without caps; N, C: chain ends. No end group written: not given here.

B1: scrambled cyclic peptide ScrC44 (peptide)
peptide: CADWRYRSVFGPVSVAC
modifications: disulfide 1-17 (inferred); not fully specified
notes: Negative control; also called Scr44; cyclic peptide with scrambled amino acids
B2: HCDR3-derived synthetic peptide N44 (peptide)
peptide: ASVRGWYVRSVFDPA
notes: HCDR3 of clone b4.4 with an alanine at each end, without cysteines; linear; also called linear N44; linear peptide N44

Each binder was assayed against T1, biotinylated Aβ42 (human, UniProt P05067 672-713, biotinylated (site not stated)) (assay: ELISA, peptide coated at 10 µg/ml, biotinylated Aβ42 in solution).
T1 construct: domain: amyloid-beta peptide (Aβ42); Added in solution (PBS/1% BSA) to plates coated with the HCDR3-derived peptides; detected with avidin-peroxidase; also called Aβ42 (biotinylated)
T1 sequence (P05067 672-713 limits assumed): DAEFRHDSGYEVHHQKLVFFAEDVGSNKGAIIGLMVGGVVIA

| Binder | binding result |
| --- | --- |
| B1 | no binding |
| IWGCSGKLICTTAVP (bridge 4-10 (inferred); also: cyclic via two Cys, bond not described, Negative control) [non-related cyclic peptide GM15] | no binding |
| B2 | no binding |
